Laboratory results from the supplement of paper PMC10065799, “High-throughput profiling of sequence recognition by tyrosine kinases and SH2 domains using bacterial peptide display” (eLife, 2023).

test system: c-Src; assay: phosphorylation enrichment, bacterial display (enrichment ratio); higher = better substrate or ligand; peptides without Tyr show the background
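Wherever SH2 binding enrichment of the phosphorylated peptide, bacterial display is given: peptide library displayed on the E. coli surface as eCPX fusions, selected cells deep-sequenced, score is each peptide's frequency after selection divided by its frequency in the input.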
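Wherever phosphorylation enrichment, bacterial display is given: 11-residue human phosphosite peptides and single-mutation variants displayed on the E. coli surface, counted by deep sequencing, each peptide's frequency after selection divided by its frequency in the unselected input library; frequency after pTyr selection over input frequency; kinase dosed for 20-30% of maximal phosphorylation in three min.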

Sequence	phosphorylation enrichment
QSRSPYSSRHS [CDK13_Y415_R410Q]	0.705
RLLRGHDQSAF [HLA-C_Y137_Y137H_YF]	0.573
IVLEKYKLLPE [DHFR_Y157_D153V]	0.346
SSTASYFEAPG [RFX2_Y108]	0.432
TLPAFYMENFS [GLB1_Y552_G554E]	0.735
KGEDFYFVTCH [FHL1_Y149_C150Y_YF]	0.468
ILTFKYLQIPM [KIT_Y547_K550I_YF]	0.344
LDMSQYFRLFN [CPT2_Y217]	0.601
AVDDKYSRREE [SART1_Y685_I681V]	0.427
RHFTGCRIELQ [INSR_Y818_Y818C]	0.508
ASFGPNTRVQS [FOXL2_Y258_Y258N_YF]	0.394
SLALFYRKVFH [RBL1_Y792_YF]	0.409
SSNLYYRCLTA [CNGA3_Y169_W171C]	0.63
GCRSKYVGLWR [KCNQ1_Y184_G189R]	0.365
VFSSDYFSFVL [USP24_Y2138_YF]	4.09
MTFMFYRENLR [NLRP14_Y443_V441M_YF]	0.445
EFHRLYEEFTR [PIK3R1_Y467_D464H_YF]	5.59

Sequence	phosphorylation enrichment
PQGVRYTYTID [DCX_Y103_I104T]	0.634
GYKVRYATGSI [FGFR1_Y210_W213G]	0.398
LEFAKYGSLRG [RET_Y809_V804L_YF]	0.43
HRAVEYLLMGI [RAD23A_Y197_T200M]	0.441
LSNPAYCLLLA [DDR1_Y513_R514C]	0.699
QDGFSYLSRQM [LDLR_Y847_P848L_YF]	0.461
YSPYDYQPCLA [TNS1_Y798]	3.49
DTQNSYRCATS [TSC1_Y304_G305R]	0.449
NSRYTYKLEVK [USH2A_Y3747]	0.42
IYGASYVPFAA [RBM47_Y541]	6.94
RCKSHYAAFSV [C1QTNF1_Y145]	1.07
NKKFHYRELPV [ERN2_Y860_H858Y_YF]	0.266
LSSEMYVKSYT [F5_Y2149]	0.73
RSAGKYDVYFI [MECP2_Y120_L124F]	3.15
CSTIHYNYMCN [TP53_Y234_T230S]	0.435
SYTDPYAQPPL [KMT2D_Y2378]	0.587

target: Grb2 SH2 (UniProt P62993); assay: SH2 binding enrichment of the phosphorylated peptide, bacterial display (enrichment ratio); higher = better substrate or ligand; peptides without Tyr show the background
Sequence (P62993 whole entry, looked up): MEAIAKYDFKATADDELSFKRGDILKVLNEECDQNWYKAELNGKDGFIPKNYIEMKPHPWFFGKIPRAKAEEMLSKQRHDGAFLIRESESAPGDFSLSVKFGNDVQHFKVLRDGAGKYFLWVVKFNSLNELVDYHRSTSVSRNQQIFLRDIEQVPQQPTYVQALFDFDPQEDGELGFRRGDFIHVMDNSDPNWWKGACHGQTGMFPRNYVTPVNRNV

Sequence	SH2 binding enrichment
QSRSPYSSRHS [CDK13_Y415_R410Q]	1.2
RLLRGHDQSAF [HLA-C_Y137_Y137H_YF]	0.89
IVLEKYKLLPE [DHFR_Y157_D153V]	0.922
SSTASYFEAPG [RFX2_Y108]	0.862
TLPAFYMENFS [GLB1_Y552_G554E]	0.853
KGEDFYFVTCH [FHL1_Y149_C150Y_YF]	0.743
ILTFKYLQIPM [KIT_Y547_K550I_YF]	1.69
LDMSQYFRLFN [CPT2_Y217]	1.23
AVDDKYSRREE [SART1_Y685_I681V]	1.02
RHFTGCRIELQ [INSR_Y818_Y818C]	0.835
ASFGPNTRVQS [FOXL2_Y258_Y258N_YF]	0.8
SLALFYRKVFH [RBL1_Y792_YF]	0.767
SSNLYYRCLTA [CNGA3_Y169_W171C]	0.702
GCRSKYVGLWR [KCNQ1_Y184_G189R]	1.18
VFSSDYFSFVL [USP24_Y2138_YF]	0.885
MTFMFYRENLR [NLRP14_Y443_V441M_YF]	0.909
EFHRLYEEFTR [PIK3R1_Y467_D464H_YF]	0.86

Sequence	SH2 binding enrichment
PQGVRYTYTID [DCX_Y103_I104T]	0.779
GYKVRYATGSI [FGFR1_Y210_W213G]	1.1
LEFAKYGSLRG [RET_Y809_V804L_YF]	0.907
HRAVEYLLMGI [RAD23A_Y197_T200M]	1.35
LSNPAYCLLLA [DDR1_Y513_R514C]	0.683
QDGFSYLSRQM [LDLR_Y847_P848L_YF]	0.983
YSPYDYQPCLA [TNS1_Y798]	0.746
DTQNSYRCATS [TSC1_Y304_G305R]	0.956
NSRYTYKLEVK [USH2A_Y3747]	0.962
IYGASYVPFAA [RBM47_Y541]	0.616
RCKSHYAAFSV [C1QTNF1_Y145]	1.45
NKKFHYRELPV [ERN2_Y860_H858Y_YF]	0.877
LSSEMYVKSYT [F5_Y2149]	0.89
RSAGKYDVYFI [MECP2_Y120_L124F]	0.923
CSTIHYNYMCN [TP53_Y234_T230S]	1.11
SYTDPYAQPPL [KMT2D_Y2378]	0.91

target: SHP2-C SH2; assay: as above

Sequence	SH2 binding enrichment
QSRSPYSSRHS [CDK13_Y415_R410Q]	0.852
RLLRGHDQSAF [HLA-C_Y137_Y137H_YF]	0.718
IVLEKYKLLPE [DHFR_Y157_D153V]	0.907
SSTASYFEAPG [RFX2_Y108]	0.454
TLPAFYMENFS [GLB1_Y552_G554E]	0.638
KGEDFYFVTCH [FHL1_Y149_C150Y_YF]	0.345
ILTFKYLQIPM [KIT_Y547_K550I_YF]	1.67
LDMSQYFRLFN [CPT2_Y217]	2.02
AVDDKYSRREE [SART1_Y685_I681V]	0.925
RHFTGCRIELQ [INSR_Y818_Y818C]	0.771
ASFGPNTRVQS [FOXL2_Y258_Y258N_YF]	0.267
SLALFYRKVFH [RBL1_Y792_YF]	0.876
SSNLYYRCLTA [CNGA3_Y169_W171C]	0.611
GCRSKYVGLWR [KCNQ1_Y184_G189R]	0.744
VFSSDYFSFVL [USP24_Y2138_YF]	0.764
MTFMFYRENLR [NLRP14_Y443_V441M_YF]	1.22
EFHRLYEEFTR [PIK3R1_Y467_D464H_YF]	0.782

Sequence	SH2 binding enrichment
PQGVRYTYTID [DCX_Y103_I104T]	3.15
GYKVRYATGSI [FGFR1_Y210_W213G]	1.11
LEFAKYGSLRG [RET_Y809_V804L_YF]	0.73
HRAVEYLLMGI [RAD23A_Y197_T200M]	1.55
LSNPAYCLLLA [DDR1_Y513_R514C]	0.819
QDGFSYLSRQM [LDLR_Y847_P848L_YF]	0.557
YSPYDYQPCLA [TNS1_Y798]	0.546
DTQNSYRCATS [TSC1_Y304_G305R]	0.594
NSRYTYKLEVK [USH2A_Y3747]	0.911
IYGASYVPFAA [RBM47_Y541]	0.649
RCKSHYAAFSV [C1QTNF1_Y145]	1.73
NKKFHYRELPV [ERN2_Y860_H858Y_YF]	1.06
LSSEMYVKSYT [F5_Y2149]	0.609
RSAGKYDVYFI [MECP2_Y120_L124F]	0.804
CSTIHYNYMCN [TP53_Y234_T230S]	3.83
SYTDPYAQPPL [KMT2D_Y2378]	0.661

target: c-Src SH2; assay: as above

Sequence	SH2 binding enrichment
QSRSPYSSRHS [CDK13_Y415_R410Q]	0.549
RLLRGHDQSAF [HLA-C_Y137_Y137H_YF]	0.657
IVLEKYKLLPE [DHFR_Y157_D153V]	0.575
SSTASYFEAPG [RFX2_Y108]	0.567
TLPAFYMENFS [GLB1_Y552_G554E]	0.484
KGEDFYFVTCH [FHL1_Y149_C150Y_YF]	0.392
ILTFKYLQIPM [KIT_Y547_K550I_YF]	1.17
LDMSQYFRLFN [CPT2_Y217]	0.669
AVDDKYSRREE [SART1_Y685_I681V]	0.586
RHFTGCRIELQ [INSR_Y818_Y818C]	0.714
ASFGPNTRVQS [FOXL2_Y258_Y258N_YF]	0.542
SLALFYRKVFH [RBL1_Y792_YF]	0.454
SSNLYYRCLTA [CNGA3_Y169_W171C]	0.425
GCRSKYVGLWR [KCNQ1_Y184_G189R]	0.802
VFSSDYFSFVL [USP24_Y2138_YF]	0.428
MTFMFYRENLR [NLRP14_Y443_V441M_YF]	0.567
EFHRLYEEFTR [PIK3R1_Y467_D464H_YF]	0.694

Sequence	SH2 binding enrichment
PQGVRYTYTID [DCX_Y103_I104T]	1.55
GYKVRYATGSI [FGFR1_Y210_W213G]	1.03
LEFAKYGSLRG [RET_Y809_V804L_YF]	0.505
HRAVEYLLMGI [RAD23A_Y197_T200M]	1.11
LSNPAYCLLLA [DDR1_Y513_R514C]	0.591
QDGFSYLSRQM [LDLR_Y847_P848L_YF]	0.406
YSPYDYQPCLA [TNS1_Y798]	0.647
DTQNSYRCATS [TSC1_Y304_G305R]	0.554
NSRYTYKLEVK [USH2A_Y3747]	0.644
IYGASYVPFAA [RBM47_Y541]	0.553
RCKSHYAAFSV [C1QTNF1_Y145]	1.34
NKKFHYRELPV [ERN2_Y860_H858Y_YF]	0.678
LSSEMYVKSYT [F5_Y2149]	0.479
RSAGKYDVYFI [MECP2_Y120_L124F]	0.639
CSTIHYNYMCN [TP53_Y234_T230S]	6.46
SYTDPYAQPPL [KMT2D_Y2378]	1.02
